Data from PMC8465381, “Dopamine-Conjugated Carbon Dots Inhibit Human Calcitonin Fibrillation” (Nanomaterials, 2021).
Positions of bridges follow the written chain, without caps; N, C: chain ends. No end group written: not given here.

Biological target: the molecule itself
Experiment: thioflavin-T fluorescence kinetics + TEM; 64 μM hCT alone, 50 mM phosphate buffer pH 7.4, 16 μM ThT, 1% DMSO, 25 °C, 384-well nonbinding plate with agitation every 2 h; end products negatively stained for TEM; fibril formation (self-assembly)

B1: Human calcitonin (peptide, UniProt P01258 85-116, looked up)
peptide: CGNLSTCMLGTYTQDFNKFHTFPQTAIGVGAP-NH2
modifications: disulfide 1-7
notes: human calcitonin, 32-residue hormone peptide cut from the calcitonin precursor; numbers count on: the mature protein; Forms amyloid fibrils; preformed fibrils of the same peptide were used as seeds; also called hCT; source: synthetic peptide (Fmoc solid-phase synthesis, RP-HPLC purified)
B1: binds.
